Test results published in patent US8765674B2, “Methods useful in the treatment of bone resorption diseases” (NPS Pharmaceuticals, Inc., priority 1997, dated 2014).

B1: PTH: Parathyroid hormone, an 84 amino acid polypeptide normally secreted from the parathyroid glands (protein, UniProt P01270 32-115, looked up)
Parathyroid hormone: SVSEIQLMHNLGKHLNSMERVEWLRKKLQDVHNFVALGAPLAPRDAGSQRPRKKEDNVLVESHEKSLGEADKADVNVLTKAKSQ
B2: intact human PTH (1-84): intact human parathyroid hormone, full-length 84 amino acid polypeptide (protein, UniProt P01270 32-115, looked up)
Parathyroid hormone: B1 Parathyroid hormone

What was measured:
[1] = system: patient with osteoporosis; details: during therapy with PTH, cited from earlier work
[2] = system: Postmenopausal females with osteoporosis; assay: Clinical study: PTH (1-84) given for one year, bone mineral density; assay type: in vivo, human; details: subcutaneous injection, 50 to 100 micrograms daily
From the text: Postmenopausal females (n=172) with osteoporosis were given intact human PTH (1-84), as a subcutaneous injection, for one year in doses from 50 to 100 micrograms daily. It was shown that bone mineral density of the spine was increased in the lumbar spine, on the average by 8%. Increases in individual patients were considerably more than 10%. The changes of the femoral neck were smaller and ranged from 1 to 3%.

Molecule | activation frequency ([1]; calculated) | bone mineral density in the femoral neck [1] | increases of lumbar spine bone mineral density in individual patients [2] | increase of bone mineral density of the lumbar spine, on the average ([2]; n=172)
B1 | doubled | largely unaffected | – | –
B2 | – | – | more than 10% | 8%
